# Results published in patent publication US20070253950A1 (Pfizer, published 2007).
# B1: XT-H2 (antibody, V domains shown)
# VH: QVQLQQSGAELAKPGASVKMSCKASGYTFTTYWMHWVKQRPGQGLYWIGYINPSTGYTEYNQKFKDKATLTADKSSSTAYMQLSSLTSEDSAVYYCARWAGYTIDYWGQGTSVTVSS
# VL: DVVLTQTPLSLPVNIGDQASISCKSTKSLLNSDGFTYLDWYLQKPGQSPQLLIYLVSDRFSGVPDRFSGSGSGTDFTLTISRVEAEDLGVYYCFQSNSLPLTFGSGTKLEIK
# notes: also called 1hRAGEP3/16
# Molecular target: T1, human RAGE-Fc fusion protein (human, UniProt Q15109 23-344)
# T1 construct: amino acids 1-344 of human RAGE appended to the Fc domain of human IgG; also called hRAGE-Fc; huRAGE-Fc
# Test: ligand competition ELISA: HMGB1 coated, hRAGE-Fc pre-mixed with antibody, bound hRAGE-Fc detected with anti-huIgG-HRP; blocked ligand HMGB1
# Description: Wells were washed and blocked as described above and exposed to 100 μl of pre-incubated mixtures of RAGE-Fc or TrkB-Fc (a non-specific Fc control), at 0.1 μg/ml, plus various forms of the indicated antibody preparation (dilutions of immune sera, hybridoma supernatants or purified antibodies) for 1 hour at room temperature.
binder,measurement,value
B1,IC50 (read off the curve),~0.1 µg/mL
